In paper PMC11967795 (Advanced Science, 2025):

Experiments:
[1] = molecular target: recombinant RhuH protein (R. anatipestifer haem uptake protein haemophore), mature, without signal peptide (Riemerella anatipestifer CH-1); test: SEC; purified recombinant apo RhuH on size exclusion chromatography; elution compared with the 35 kDa of the sequence
[2] = molecular target: T1, RhuA (rRhuA; R. anatipestifer haemin uptake protein A) (Riemerella anatipestifer, UniProt J9QZE1); test: SDS-PAGE and ECL detection of bound haemin; format: binding; details: positive control
T1 construct: gene B739_1417; recombinant
T1 sequence (J9QZE1 17-210): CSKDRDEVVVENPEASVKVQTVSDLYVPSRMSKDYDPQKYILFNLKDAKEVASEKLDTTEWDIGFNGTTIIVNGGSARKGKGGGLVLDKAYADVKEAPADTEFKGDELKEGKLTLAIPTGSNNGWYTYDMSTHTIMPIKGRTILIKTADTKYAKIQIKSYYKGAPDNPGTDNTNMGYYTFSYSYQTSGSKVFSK

| Molecule | stoichiometry N [1] | SDS-PAGE and ECL detection of bound haemin [2] |
| --- | --- | --- |
| recombinant RhuH protein (R. anatipestifer haem uptake protein haemophore), mature, without signal peptide (natural protein) | 2 | – |
| C=CC1=C(C)C2=Cc3c(C=C)c(C)c4[n]3[Fe]([Cl])[n]3c(c(C)c(CCC(=O)O)c3=CC3=NC(=C4)C(C)=C3CCC(=O)O)=CC1=N2 [haemin] | – | haemin signal was detected in the haem binding protein rRhuA (positive control) incubated with haemin |
